Measured values taken from patent US20230063794A1, “STAPLED TRIAZOLE CO-AGONISTS OF THE GLUCAGON AND GLP-1 RECEPTORS” (Merck Sharp & Dohme LLC, priority 2019, published 2023).
Starred links: 1 amine or outer side, 2 acyl side, 3 side chain; linkers in the order of their positions; H or OH if unused. Positions of bridges follow the written chain, without caps; N, C: chain ends. Non-standard residues stand in square brackets, D forms with d. Residues, ends and D or L forms follow the SMILES beside them. Groups on a side chain read outwards from the residue. Triazole bridges read from a SMILES are 1,4-linked. No end group written: not given here. *: point of attachment. Peg3N3Ala = O-(2-(2-(2-azidoethoxy)ethoxy)ethyl)-L-serine, [N-]=[N+]=NCCOCCOCCOC[C@H](N[*:1])C(=O)[*:2]; Lys(N3) = [N-]=[N+]=NCCCC[C@H](N)C(=O)O; γGlu = O=C(O)[C@H](CCC(=O)[*:2])N[*:1]; Met(O2) = CS(=O)(=O)CC[C@H](N)C(=O)O; Palmitoyl = CCCCCCCCCCCCCCCC(=O)*; dPra = C#CC[C@@H](N)C(=O)O; Nle = CCCC[C@H](N)C(=O)O; Ac4c = NC1(C(=O)O)CCC1; Aib = CC(C)(N)C(=O)O

B1: TP488 (peptide)
peptide: HXQGTFTSDXSKYLDERAAXDFVXWLLDT
modifications: D-Ser at 2; Lys 10 conjugated to γEγE-C16 fatty acid; pra at 20 and Nle(εN3) at 24 cyclized to a triazole containing ring; C-terminal amide
B2: TP487 (peptide)
peptide: HXQGTFTSDXSKYLDERAAXDFVXWLLDT
modifications: D-Ser at 2; Lys 10 conjugated to γEγE-C16 fatty acid; Nle(εN3) at 20 and pra at 24 cyclized to a triazole containing ring; C-terminal amide
B3: TP531 (peptide)
peptide: HXQGTFTSDKSKYLDERAAXDFVXWLLDT
modifications: D-Ser at 2; pra at 20 and Nle(εN3) at 24 cyclized to a triazole containing ring; C-terminal amide
B4: TP835 (peptide)
peptide: HXQGTFTSDXSKYLDARAAQDFVXWLLXT
modifications: D-Ser at 2; Lys 10 conjugated to γEγE-C16 fatty acid; pra at 24 and Nle(εN3) at 28 cyclized to a triazole containing ring; C-terminal amide
B5: TP862 (peptide)
peptide: H[Aib]QGTFTSDKSKYLD[Ac4c]RAAQDFV[dPra]WL[Met(O2)][Lys(N3)]TK-{γGlu-NH2}
modifications: triazole 24-28; not fully specified (residue 10); printed as HUQGTFTSDK(γEγEC16)SKYLDAcbRAAQDFVpra*WL2Nle(ϵN3)*T / KγE-NH2
B6: TP530 (peptide)
peptide: HXQGTFTSDKSKYLDERAAXDFVXWLLDT
modifications: D-Ser at 2; Nle(εN3) at 20 and pra at 24 cyclized to a triazole containing ring; C-terminal amide
B7: TP852 (peptide)
peptide: HXQGTFTSDXSKYLDARAAQDFVXWLLXT
modifications: D-Ser at 2; Lys 10 conjugated to γEγE-C16 fatty acid; Nle(εN3) at 24 and pra at 28 cyclized to a triazole containing ring; C-terminal amide

target: human GLP-1 receptor (GLP1R) (human, UniProt P43220 24-463); assay: cell-based or functional assay; details: not given

Molecule	GLP1R EC50 human (nM), cAMP activity assay [nM]
H[Aib]QGTFTSDK([γGlu-γGlu-Palmitoyl])SKYLD[dPra]RAA[Lys(N3)]DFVQWL[Nle]DT-NH2 (triazole 16-20) [TP837]	0.042
B1	0.042
H[Aib]QGTFTSDKSKYLD[Aib]RAAQDFV[Lys(N3)]WLM[dPra]TK-{γGlu-NH2} (triazole 24-28) [TP532]	0.14
B2	0.22
H[dS]QGTFTSDK([γGlu-γGlu-Palmitoyl])SKYLDARAA[dPra]DFV[Lys(N3)]WLLDT-NH2 (triazole 20-24) [TP732]	0.123
H[Aib]QGTFTSDK([γGlu-γGlu-Palmitoyl])SKYLD[Aib]RAA[dPra]DFV[Lys(N3)]WL[Met(O2)]DTK-{γGlu-NH2} (triazole 20-24) [TP847]	0.024
B3	0.168
H[Aib]QGTFTSDK([γGlu-γGlu-Palmitoyl])SKYLD[Aib]RAAQDFV[dPra]WL[Met(O2)][Lys(N3)]TK-{γGlu-NH2} (triazole 24-28) [TP851]	0.025
H[Aib]QGTFTSDK([γGlu-γGlu-Palmitoyl])SKYLD[Aib][dPra]AAQ[Lys(N3)]FVQWL[Met(O2)]DTK-{γGlu-NH2} (triazole 17-21) [TP849]	0.041
H[Aib]QGTFTSDK([γGlu-γGlu-Palmitoyl])SKYLD[Ac4c][dPra]AAQ[Lys(N3)]FVQWL[Met(O2)]DTK-{γGlu-NH2} (triazole 17-21) [TP858]	0.042
H[dS]QGTFTSDK([γGlu-γGlu-Palmitoyl])SKYLDA[dPra]AAQ[Lys(N3)]FVQWLLDT-NH2 (triazole 17-21) [TP733]	0.54
H[Aib]QGTFTSDK([γGlu-γGlu-Palmitoyl])SKYLD[Aib][dPra]AAQ[Lys(N3)]FVQWL[Nle]DT-NH2 (triazole 17-21) [TP841]	0.414
B4	0.199
B5	0.042
H[Aib]QGTFTSDK([γGlu-γGlu-Palmitoyl])SKYLD[Ac4c]RAA[dPra]DFV[Lys(N3)]WL[Met(O2)]DTK-{γGlu-NH2} (triazole 20-24) [TP860]	0.042
H[dS]QGTFTSDK([γGlu-γGlu-Palmitoyl])SKYLD[dPra]RAA[Lys(N3)]DFVQWLLDT-NH2 (triazole 16-20) [TP731]	0.034
B6	0.03
H[Aib]QGTFTSDKSKYLD[Aib]RAAQDFV[dPra]WLM[Lys(N3)]TK-{γGlu-NH2} (triazole 24-28; also: lower-case v at 23 not defined) [TP533]	3.11
H[Aib]QGTFTSDK([γGlu-γGlu-Palmitoyl])SKYLD[dPra]RAA[Lys(N3)]DFVQWL[Met(O2)]DTK-{γGlu-NH2} (triazole 16-20) [TP845]	0.027
H[dS]QGTFTSDK([γGlu-γGlu-Palmitoyl])SKYLDA[dPra]AAQDFV[Peg3N3Ala]WLLDT-NH2 (triazole 17-24) [TP920]	0.416
B7	0.109

target: human Glucagon receptor (GCGR) (human, UniProt P47871 26-477); assay: cell-based or functional assay; details: not given
Sequence (P47871 26-477): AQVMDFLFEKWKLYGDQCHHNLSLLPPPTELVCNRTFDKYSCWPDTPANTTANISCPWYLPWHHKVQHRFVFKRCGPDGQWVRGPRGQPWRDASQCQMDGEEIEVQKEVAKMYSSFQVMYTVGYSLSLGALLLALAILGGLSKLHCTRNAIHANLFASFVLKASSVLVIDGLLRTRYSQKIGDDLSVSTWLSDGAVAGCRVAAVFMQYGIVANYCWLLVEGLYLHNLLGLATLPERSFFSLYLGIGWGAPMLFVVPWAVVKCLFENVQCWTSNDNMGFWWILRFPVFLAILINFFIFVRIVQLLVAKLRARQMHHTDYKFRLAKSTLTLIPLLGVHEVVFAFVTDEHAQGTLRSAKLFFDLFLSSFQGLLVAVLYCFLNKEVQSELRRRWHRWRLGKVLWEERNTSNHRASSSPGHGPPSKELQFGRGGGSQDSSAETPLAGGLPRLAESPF

Molecule	GCGR EC50 human (nM), cAMP activity assay [nM]
H[Aib]QGTFTSDK([γGlu-γGlu-Palmitoyl])SKYLD[dPra]RAA[Lys(N3)]DFVQWL[Nle]DT-NH2 (triazole 16-20) [TP837]	0.048
B1	0.04
H[Aib]QGTFTSDKSKYLD[Aib]RAAQDFV[Lys(N3)]WLM[dPra]TK-{γGlu-NH2} (triazole 24-28) [TP532]	1.07
B2	0.09
H[dS]QGTFTSDK([γGlu-γGlu-Palmitoyl])SKYLDARAA[dPra]DFV[Lys(N3)]WLLDT-NH2 (triazole 20-24) [TP732]	0.052
H[Aib]QGTFTSDK([γGlu-γGlu-Palmitoyl])SKYLD[Aib]RAA[dPra]DFV[Lys(N3)]WL[Met(O2)]DTK-{γGlu-NH2} (triazole 20-24) [TP847]	0.107
B3	0.323
H[Aib]QGTFTSDK([γGlu-γGlu-Palmitoyl])SKYLD[Aib]RAAQDFV[dPra]WL[Met(O2)][Lys(N3)]TK-{γGlu-NH2} (triazole 24-28) [TP851]	0.109
H[Aib]QGTFTSDK([γGlu-γGlu-Palmitoyl])SKYLD[Aib][dPra]AAQ[Lys(N3)]FVQWL[Met(O2)]DTK-{γGlu-NH2} (triazole 17-21) [TP849]	0.25
H[Aib]QGTFTSDK([γGlu-γGlu-Palmitoyl])SKYLD[Ac4c][dPra]AAQ[Lys(N3)]FVQWL[Met(O2)]DTK-{γGlu-NH2} (triazole 17-21) [TP858]	0.064
H[dS]QGTFTSDK([γGlu-γGlu-Palmitoyl])SKYLDA[dPra]AAQ[Lys(N3)]FVQWLLDT-NH2 (triazole 17-21) [TP733]	0.279
H[Aib]QGTFTSDK([γGlu-γGlu-Palmitoyl])SKYLD[Aib][dPra]AAQ[Lys(N3)]FVQWL[Nle]DT-NH2 (triazole 17-21) [TP841]	0.819
B4	0.143
B5	0.139
H[Aib]QGTFTSDK([γGlu-γGlu-Palmitoyl])SKYLD[Ac4c]RAA[dPra]DFV[Lys(N3)]WL[Met(O2)]DTK-{γGlu-NH2} (triazole 20-24) [TP860]	0.077
H[dS]QGTFTSDK([γGlu-γGlu-Palmitoyl])SKYLD[dPra]RAA[Lys(N3)]DFVQWLLDT-NH2 (triazole 16-20) [TP731]	0.03
B6	0.06
H[Aib]QGTFTSDKSKYLD[Aib]RAAQDFV[dPra]WLM[Lys(N3)]TK-{γGlu-NH2} (triazole 24-28; also: lower-case v at 23 not defined) [TP533]	5
H[Aib]QGTFTSDK([γGlu-γGlu-Palmitoyl])SKYLD[dPra]RAA[Lys(N3)]DFVQWL[Met(O2)]DTK-{γGlu-NH2} (triazole 16-20) [TP845]	0.134
H[dS]QGTFTSDK([γGlu-γGlu-Palmitoyl])SKYLDA[dPra]AAQDFV[Peg3N3Ala]WLLDT-NH2 (triazole 17-24) [TP920]	0.115
B7	0.059

target: T1, human GCGR (Homo sapiens, UniProt P47871); assay: cAMP activity assay in cells expressing human GCGR; assay type: cell-based; details: cAMP production, HitHunter cAMPXS, 1 hour; assay buffer with or without 20% human serum (not given)
T1 construct: expressed in transfected cells; grown under Blasticidin and Hygromycin selection
Experimental: Activity of the peptides at the Glucagon receptor (GCGR) and GLP-1 receptor (GLP1R) was measured in a cAMP activity assay.
Peptides were dissolved in 100% DMSO and serially diluted to generate 10 point titrations. The peptide solutions were then transferred into 384-well assay plates (150 nL/well). Assay ready frozen cells expressing human GLP1R or human GCGR were suspended in growth media consisting of DMEM medium (GIBCO), 10% FBS (GIBCO), 1× NEAA(GIBCO), 1× P/S (GIBCO), 10 ug/ml Blasticidin (GIBCO) and 200 μg/mL Hygromycin (GIBCO). Cells were then diluted in assay buffer consisting of PBS (GIBCO), 7.5% BSA (Perkin Elmer), 100 μM RO 20-1724 (Sigma), with or without 20% human serum (MP Biomedical). The cell suspensions (15 μL) were then added to the assay plates containing the peptide solutions (30,000 cells/well for human GCGR; 10,000 cells/well for human GLP1R). The cells were incubated for 1 hour at room temperature in the dark. Production of cAMP was determined using HitHunter™ cAMPXS kits (DiscoverX) following manufacturer protocol. The plates were incubated for overnight at room temperature in the dark. Luminescence was measured using an EnVision Multilabel plate reader (Perkin Elmer). Native GLP-1 and Glucagon (Bachem) are used as control peptides. EC50 values were calculated using uses a 4 parameter logistic fit based on the Levenberg-Marquardt algorithm.

T1 sequence (P47871 26-477): as above

Molecule	EC50 [nM]
CSCC[C@@H]1NC(=O)[C@H](CC(C)C)NC(=O)[C@H](Cc2c[nH]c3ccccc23)NC(=O)[C@H](NC(=O)[C@@H](NC(=O)[C@H](Cc2ccccc2)NC(=O)[C@H](CC(=O)O)NC(=O)[C@H](CCC(N)=O)NC(=O)[C@H](C)NC(=O)[C@H](C)NC(=O)[C@H](CCCNC(=N)N)NC(=O)C(C)(C)NC(=O)[C@H](CC(=O)O)NC(=O)[C@H](CC(C)C)NC(=O)[C@H](Cc2ccc(O)cc2)NC(=O)[C@H](CCCCN)NC(=O)[C@H](CO)NC(=O)[C@H](CCCCN)NC(=O)[C@H](CC(=O)O)NC(=O)[C@H](CO)NC(=O)[C@@H](NC(=O)[C@H](Cc2ccccc2)NC(=O)[C@@H](NC(=O)CNC(=O)[C@H](CCC(N)=O)NC(=O)C(C)(C)NC(=O)[C@@H](N)Cc2c[nH]cn2)[C@@H](C)O)[C@@H](C)O)C(C)C)Cc2cn(nn2)CCCC[C@@H](C(=O)N[C@H](C(=O)N[C@@H](CCCCN)C(=O)N[C@@H](CCC(N)=O)C(=O)O)[C@@H](C)O)NC1=O [compound 11] (H-H[Aib]QGTFTSDKSKYLD[Aib]RAAQDFV[dPra]WLM[Lys(N3)]TKQ-OH; triazole 24-28; N-terminus assumed)	≥ 5

same assay, conditions: ratio of human GCGR EC50 to human GLP1R EC50

Molecule	hGCGR/hGLP1R (hTone)
CC(C)C[C@H](NC(=O)[C@H](Cc1ccc(O)cc1)NC(=O)[C@H](CCCCN)NC(=O)[C@H](CO)NC(=O)[C@H](CCCCN)NC(=O)[C@H](CC(=O)O)NC(=O)[C@H](CO)NC(=O)[C@@H](NC(=O)[C@H](Cc1ccccc1)NC(=O)[C@@H](NC(=O)CNC(=O)[C@H](CCC(N)=O)NC(=O)[C@@H](CO)NC(=O)[C@@H](N)Cc1c[nH]cn1)[C@@H](C)O)[C@@H](C)O)C(=O)N[C@@H](CC(=O)O)C(=O)N[C@@H](CCC(=O)O)C(=O)N[C@@H](CCCNC(=N)N)C(=O)N[C@@H](C)C(=O)N[C@@H](C)C(=O)N[C@@H]1Cc2cn(nn2)CCCC[C@@H](C(=O)N[C@@H](Cc2c[nH]c3ccccc23)C(=O)N[C@@H](CC(C)C)C(=O)N[C@@H](CC(C)C)C(=O)N[C@@H](CC(=O)O)C(=O)N[C@H](C(N)=O)[C@@H](C)O)NC(=O)[C@H](C(C)C)NC(=O)[C@H](Cc2ccccc2)NC(=O)[C@H](CC(=O)O)NC1=O [compound 9] (H-H[dS]QGTFTSDKSKYLDERAA[dPra]DFV[Lys(N3)]WLLDT-NH2; triazole 20-24)	1.92
